From patent US20230257470A1 (published 2023)
Numbering of substitutions follows the chain as printed. Numbers in names are those of the source.

T1: human FcγRIIb (human, UniProt P31994 43-217)
T1 construct: also called FcγIIB
T1 sequence: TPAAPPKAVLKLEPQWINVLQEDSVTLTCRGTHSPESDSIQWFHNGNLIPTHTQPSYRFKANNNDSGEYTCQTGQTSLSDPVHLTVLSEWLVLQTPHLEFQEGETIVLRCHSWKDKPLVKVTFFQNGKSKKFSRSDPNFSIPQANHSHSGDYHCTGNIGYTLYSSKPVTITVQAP

T2: human FcγRIIa type R (human, UniProt P12318 36-217)
T2 construct: also called FcγRIIaR; Fc γ RIIaR
T2 chain: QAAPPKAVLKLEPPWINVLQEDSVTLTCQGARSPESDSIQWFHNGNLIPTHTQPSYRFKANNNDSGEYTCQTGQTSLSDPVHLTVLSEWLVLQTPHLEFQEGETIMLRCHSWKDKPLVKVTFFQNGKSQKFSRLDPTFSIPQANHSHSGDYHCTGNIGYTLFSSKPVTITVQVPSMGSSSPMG

T3: human FcγRIIa(R) (allotype R131) (human, UniProt P12318 36-217)
T3 construct: Soluble analyte in SPR; also called hFcgRIIa(R); FcgRIIaR
T3 chain: T2 chain

T4: human FcγRIIa(H) (allotype H131) (human, UniProt P12318 36-217)
T4 construct: Soluble analyte in SPR; also called hFcgRIIa(H); FcgRIIaH
T4 sequence: T2 chain with R133H

T5: human FcγRIIb (human, UniProt P31994 43-217, limits assumed)
T5 construct: Soluble analyte in SPR; also called hFcgRIIb; FcgRIIb
T5 sequence: T1 sequence

B1: IL6R-F652/IL6R-L (antibody, human IgG1)
heavy: QVQLQESGPGLVKPSETLSLTCAVSGHSISHDHAWSWVRQPPGEGLEWIGFISYSGITNYNPSLQGRVTISRDNSKNTLYLQMNSLRAEDTAVYYCARSLARTTAMDYWGEGTLVTVSSASTKGPSVFPLAPSSKSTSGGTAALGCLVKDYFPEPVTVSWNSGALTSGVHTFPAVLQSSGLYSLSSVVTVPSSSLGTQTYICNVNHKPSNTKVDKKVEPKSCDKTHTCPPCPAPELLGGDSVFLFPPKPKDTLYISRTPEVTCVVVDVSHEDPEVKFNWYVDGVEVHNAKTKPREEQYNSTYRVVSVLTVLHQDWLNGKEYKCKVSNKALPAPIEKTISKAKGQPREPQVYTLPPSRDELTKNQVSLTCLVKGFYPSDIAVEWESNGQPENNYKTTPPVLDSDGSFFLYSKLTVDKSRWQQGNVFSCSVMHEALHYHYTQKSLSLSP
light: DIQMTQSPSSLSASVGDRVTITCRASQDISSYLNWYQQKPGKAPKLLIYYTSRLHSGVPSRFSGSGSGTDFTFTISSLQPEDIATYYCQQGNTLPYTFGQGTKVEIK
notes: P238D introduced into IL6R-F11 (M252Y/N434Y in IL6R-G1d); also called P238D
B2: IL6R-PD080/IL6R-L (antibody)
heavy: B1 heavy with G239D
light: B1 light
notes: Alterations introduced into IL6R-F11; also called P238D/G237D
B3: IL6R-PD042/IL6R-L (antibody, human IgG1)
heavy: B1 heavy with L236W
light: B1 light
notes: Alterations introduced into IL6R-F11; also called P238D/L234W
B4: IL6R-PD079/IL6R-L (antibody, human IgG1)
heavy: B1 heavy with G239A
light: B1 light
notes: Alterations introduced into IL6R-F11; also called P238D/G237A
B5: IL6R-PD094/IL6R-L (antibody, human IgG1)
heavy: B1 heavy with G239W
light: B1 light
notes: Alterations introduced into IL6R-F11; also called P238D/G237W
B6: IL6R-PD043/IL6R-L (antibody, human IgG1)
heavy: B1 heavy with L236Y
light: B1 light
notes: Alterations introduced into IL6R-F11; also called P238D/L234Y
B7: IL6R-PD086/IL6R-L (antibody, human IgG1)
heavy: B1 heavy with G239L
light: B1 light
notes: Alterations introduced into IL6R-F11; also called P238D/G237L
B8: IL6R-PD097/IL6R-L (antibody, human IgG1)
heavy: B1 heavy with S241D
light: B1 light
notes: Alterations introduced into IL6R-F11; also called P238D/S239D
B9: GpH7-B3 variant P329Y / GpL16-k0 (antibody, human IgG1)
heavy: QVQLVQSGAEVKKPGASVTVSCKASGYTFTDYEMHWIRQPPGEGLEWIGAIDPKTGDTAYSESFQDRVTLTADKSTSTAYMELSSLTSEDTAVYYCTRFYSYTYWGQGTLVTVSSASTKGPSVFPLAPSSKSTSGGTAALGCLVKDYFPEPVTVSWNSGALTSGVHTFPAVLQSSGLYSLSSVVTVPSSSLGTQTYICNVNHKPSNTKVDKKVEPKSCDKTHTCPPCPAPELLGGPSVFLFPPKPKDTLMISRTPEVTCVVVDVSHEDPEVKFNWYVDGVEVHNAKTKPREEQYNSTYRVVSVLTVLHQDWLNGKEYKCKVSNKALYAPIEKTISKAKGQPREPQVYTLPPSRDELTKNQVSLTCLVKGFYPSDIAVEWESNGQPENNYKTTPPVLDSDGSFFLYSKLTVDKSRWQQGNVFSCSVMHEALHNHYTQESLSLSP
light: DIVMTQSPLSLPVTPGEPASISCQASESLVHSNRNTYLHWYLQKPGQSPQLLIYKVSNRFSGVPDRFSGSGSGTDFTLKISRVEAEDVGVYYCSQNTHVPPTFGQGTKVEIE
notes: Anti-glypican-3 human IgG1 with B3 constant region; position by EU numbering
B10: GpH7-B3 variant P331R / GpL16-k0 (antibody, human IgG1)
heavy: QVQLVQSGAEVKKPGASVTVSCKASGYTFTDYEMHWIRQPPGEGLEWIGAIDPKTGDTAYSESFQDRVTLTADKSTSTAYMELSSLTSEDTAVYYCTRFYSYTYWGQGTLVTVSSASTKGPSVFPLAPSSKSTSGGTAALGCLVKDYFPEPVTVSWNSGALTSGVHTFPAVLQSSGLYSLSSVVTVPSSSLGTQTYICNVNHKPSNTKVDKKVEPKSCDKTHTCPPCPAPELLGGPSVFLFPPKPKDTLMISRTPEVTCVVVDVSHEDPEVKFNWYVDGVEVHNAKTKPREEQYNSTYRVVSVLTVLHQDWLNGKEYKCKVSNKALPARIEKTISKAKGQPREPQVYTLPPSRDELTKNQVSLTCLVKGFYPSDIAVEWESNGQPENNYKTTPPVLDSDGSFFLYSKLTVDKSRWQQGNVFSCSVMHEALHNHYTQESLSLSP
light: B9 light
notes: as for B9
B11: GpH7-B3 variant P331K / GpL16-k0 (antibody, human IgG1)
heavy: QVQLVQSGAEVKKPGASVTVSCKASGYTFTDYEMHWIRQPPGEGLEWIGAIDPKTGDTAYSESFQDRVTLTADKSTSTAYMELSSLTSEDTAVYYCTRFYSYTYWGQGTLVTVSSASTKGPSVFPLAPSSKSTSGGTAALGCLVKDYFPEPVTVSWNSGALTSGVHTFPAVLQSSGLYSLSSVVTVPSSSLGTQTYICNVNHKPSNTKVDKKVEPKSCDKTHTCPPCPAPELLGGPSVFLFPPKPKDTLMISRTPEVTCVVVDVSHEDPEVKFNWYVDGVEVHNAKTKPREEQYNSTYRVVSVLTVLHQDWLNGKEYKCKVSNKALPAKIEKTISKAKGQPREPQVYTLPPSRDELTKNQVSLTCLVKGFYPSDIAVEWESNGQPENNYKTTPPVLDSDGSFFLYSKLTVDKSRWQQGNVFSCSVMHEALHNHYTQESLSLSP
light: B9 light
notes: as for B9

What follows are binders tested against T1, human FcγRIIb (assay: SPR (Biacore), captured antibody, FcγR as analyte; binding amount divided by that of IL6R-F652/IL6R-L, times 100).

Which “RELATIVE BINDING ACTIVITY FOR FcγRIIb” value does the source give for B1 here?
Its value is 100 relative (IL6R-F652/IL6R-L = 100).

Which “RELATIVE BINDING ACTIVITY FOR FcγRIIb” value does the source give for B2 here?
Its value is 127 relative (IL6R-F652/IL6R-L = 100).

Which “RELATIVE BINDING ACTIVITY FOR FcγRIIb” value does the source give for B3 here?
Its value is 106 relative (IL6R-F652/IL6R-L = 100).

With B4 as the binder, how does the “RELATIVE BINDING ACTIVITY FOR FcγRIIb” value read?
The value was 101 relative (IL6R-F652/IL6R-L = 100).

B5 was tested. Which “RELATIVE BINDING ACTIVITY FOR FcγRIIb” value did it give?
The value was 122 relative (IL6R-F652/IL6R-L = 100).

For B6, which “RELATIVE BINDING ACTIVITY FOR FcγRIIb” value is on record?
The value was 112 relative (IL6R-F652/IL6R-L = 100).

B7 was tested. Which “RELATIVE BINDING ACTIVITY FOR FcγRIIb” value did it give?
Its value is 112 relative (IL6R-F652/IL6R-L = 100).

For B8, which “RELATIVE BINDING ACTIVITY FOR FcγRIIb” value is on record?
The value was 139 relative (IL6R-F652/IL6R-L = 100).

Molecular target: T2, human FcγRIIa type R
Experiment: as above

B1 was tested. Which “RELATIVE BINDING ACTIVITY FOR FcγRIIaR” value did it give?
The value was 100 relative (IL6R-F652/IL6R-L = 100).

With B2 as the binder, how does the “RELATIVE BINDING ACTIVITY FOR FcγRIIaR” value read?
Its value is 222 relative (IL6R-F652/IL6R-L = 100).

Which “RELATIVE BINDING ACTIVITY FOR FcγRIIaR” value does the source give for B3 here?
The value was 240 relative (IL6R-F652/IL6R-L = 100).

With B4 as the binder, how does the “RELATIVE BINDING ACTIVITY FOR FcγRIIaR” value read?
The value was 138 relative (IL6R-F652/IL6R-L = 100).

B5 was tested. Which “RELATIVE BINDING ACTIVITY FOR FcγRIIaR” value did it give?
Its value is 593 relative (IL6R-F652/IL6R-L = 100).

Which “RELATIVE BINDING ACTIVITY FOR FcγRIIaR” value does the source give for B6 here?
The value was 175 relative (IL6R-F652/IL6R-L = 100).

B7 was tested. Which “RELATIVE BINDING ACTIVITY FOR FcγRIIaR” value did it give?
Its value is 268 relative (IL6R-F652/IL6R-L = 100).

For B8, which “RELATIVE BINDING ACTIVITY FOR FcγRIIaR” value is on record?
Its value is 844 relative (IL6R-F652/IL6R-L = 100).

Molecular target: T3, human FcγRIIa(R) (allotype R131)
Experiment: SPR (Biacore), antibody captured, FcγR analyte, 25 C; normalised to captured antibody, GpH7-B3/GpL16-k0 = 100;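 note: antibodies held on sensor chips through immobilized antigen peptide, Protein A, Protein A/G or Protein L, with HBS-EP+ running buffer and FcγR in solution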
Description: (§1) Interaction between each modified antibody and Fcγ receptor prepared in the manner described above was analyzed using the BIACORE™ T100 surface plasmon resonance system (GE Healthcare), BIACORE™ T200 surface plasmon resonance system (GE Healthcare), BIACORE™ A100 surface plasmon resonance system or BIACORE™ 4000 surface plasmon resonance system. HBS-EP+(GE Healthcare) was used for the running buffer, and measurements were carried out at 25° C. The chips used were chips in which antigen peptides, Protein A (Thermo Scientific), Protein A/G (Thermo Scientific) or Protein L (ACTIGEN® protein (Alltech or BioVision) were immobilized on the Series S Sensor Chip CM5 (GE Healthcare) or Series S Sensor Chip CM4 (GE Healthcare) by amine coupling, or chips in which preliminarily biotinylated antigen peptides were allowed to interact and then immobilized on the Series S Sensor Chip SA (certified) (GE Healthcare). The target antibodies were captured on these sensor chips, Fcγ receptor diluted with the running buffer was allowed to interact, followed by measurement of the amount of bound antibody. The amounts bound were compared between antibodies. However, since the amount of Fcγ receptor bound depends on the amount of captured antibody, the values used for comparison were first corrected by dividing the amount of Fcγ receptor bound by the captured amount of each antibody. Through reaction with 10 mM glycine-HCl at pH 1.5, the sensor chips were regenerated by washing off antibody captured on the sensor chips and used repeatedly.
(§2) Binding strength was evaluated according to the following method based on the results of analyzing the interaction with each FcγR. […] That value was then further multiplied by 100, and the resulting value was used as an indicator of relative binding activity to each FcγR.

B9 was tested. Which “relative binding activity (parent antibody = 100)” value did it give?
Its value is -1 % of control.

For B10, which “relative binding activity (parent antibody = 100)” value is on record?
The value was 64 % of control.

How did the “relative binding activity (parent antibody = 100)” value turn out when B11 was run?
Its value is 72 % of control.

The binders below were run against T4, human FcγRIIa(H) (allotype H131) in the same assay as above.
Description: as §1, §2

With B9 as the binder, how does the “relative binding activity (parent antibody = 100)” value read?
The value was 0 % of control.

Which “relative binding activity (parent antibody = 100)” value does the source give for B10 here?
Its value is 59 % of control.

B11 was tested. Which “relative binding activity (parent antibody = 100)” value did it give?
Its value is 58 % of control.

What follows are binders tested against T5, human FcγRIIb in the same assay as above.
Description: as §1, §2

For B9, which “relative binding activity (parent antibody = 100)” value is on record?
The value was -3 % of control.

With B10 as the binder, how does the “relative binding activity (parent antibody = 100)” value read?
Its value is 55 % of control.

With B11 as the binder, how does the “relative binding activity (parent antibody = 100)” value read?
The value was 63 % of control.

The binders below were run against T6, human FcγRIa (human, UniProt P12314 16-292, limits assumed) in the same assay as above.
T6 construct: Soluble analyte in SPR; also called hFcgRIa; FcgRIa
T6 sequence (P12314 16-292 limits assumed): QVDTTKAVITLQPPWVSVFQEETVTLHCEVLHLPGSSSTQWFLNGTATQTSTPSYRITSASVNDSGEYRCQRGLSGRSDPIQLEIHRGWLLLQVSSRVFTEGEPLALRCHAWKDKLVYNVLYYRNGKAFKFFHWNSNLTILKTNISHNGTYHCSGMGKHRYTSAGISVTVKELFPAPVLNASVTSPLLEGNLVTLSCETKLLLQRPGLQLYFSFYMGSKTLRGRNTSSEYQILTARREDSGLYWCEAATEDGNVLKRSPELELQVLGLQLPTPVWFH
Description: as §1, §2

B9 was tested. Which “relative binding activity (parent antibody = 100)” value did it give?
Its value is 76 % of control.

With B10 as the binder, how does the “relative binding activity (parent antibody = 100)” value read?
Its value is 95 % of control.

Which “relative binding activity (parent antibody = 100)” value does the source give for B11 here?
The value was 98 % of control.

The binders below were run against T7, human FcγRIIIa(F) (allotype F158) (human, UniProt P08637 17-208, limits assumed) in the same assay as above.
T7 construct: also called hFcgRIIIa(F); FcgRIIIaF
T7 sequence (P08637 other isoform, or with tags, fused parts or gaps limits assumed): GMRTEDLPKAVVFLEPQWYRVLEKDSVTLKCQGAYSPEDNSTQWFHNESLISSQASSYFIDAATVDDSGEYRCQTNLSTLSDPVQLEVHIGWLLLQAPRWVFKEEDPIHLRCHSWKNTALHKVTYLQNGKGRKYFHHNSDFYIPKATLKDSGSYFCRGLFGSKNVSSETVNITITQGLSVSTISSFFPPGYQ
Description: as §1, §2

How did the “relative binding activity (parent antibody = 100)” value turn out when B9 was run?
The value was 0 % of control.

Which “relative binding activity (parent antibody = 100)” value does the source give for B10 here?
Its value is 38 % of control.

For B11, which “relative binding activity (parent antibody = 100)” value is on record?
Its value is 34 % of control.
